Data on one substance can be found in PMC10745484.

In general, koff refers to the rate constant with which the complex falls apart. As usually defined, the kon is the second-order rate constant of association.

The assay has as its target recombinant Fe-S cluster assembly ATP-binding protein (SufC) (Streptococcus pneumoniae strain D39). Description: SPR; Biacore X100; rSufC immobilised on a CM5 chip (1000 RU); plasminogen or BSA flowed at 6.25 to 100 nM, 25 °C, 100 mM HEPES pH 7.4, 150 mM NaCl, 3 mM EDTA, 0.005% surfactant P20; apparent constants. In general terms: Surface plasmon resonance follows binding to a sensor surface in real time, without labels.

Turning to “plasminogen from human plasma (natural protein)”, the Kd was found to be 79.5 nM, the koff stood at 0.00156 s⁻¹ and the kon came to 19600 M⁻¹ s⁻¹.
